Assay [1] deals with T1, human SEMA4D, full length, on CHO-K1 cells (CHO-K1 hSEMA4D) (human, UniProt Q92854 22-862).
T1 construct: whole, on cells; also called human SEMA4D recombinant cells
T1 sequence (looked up): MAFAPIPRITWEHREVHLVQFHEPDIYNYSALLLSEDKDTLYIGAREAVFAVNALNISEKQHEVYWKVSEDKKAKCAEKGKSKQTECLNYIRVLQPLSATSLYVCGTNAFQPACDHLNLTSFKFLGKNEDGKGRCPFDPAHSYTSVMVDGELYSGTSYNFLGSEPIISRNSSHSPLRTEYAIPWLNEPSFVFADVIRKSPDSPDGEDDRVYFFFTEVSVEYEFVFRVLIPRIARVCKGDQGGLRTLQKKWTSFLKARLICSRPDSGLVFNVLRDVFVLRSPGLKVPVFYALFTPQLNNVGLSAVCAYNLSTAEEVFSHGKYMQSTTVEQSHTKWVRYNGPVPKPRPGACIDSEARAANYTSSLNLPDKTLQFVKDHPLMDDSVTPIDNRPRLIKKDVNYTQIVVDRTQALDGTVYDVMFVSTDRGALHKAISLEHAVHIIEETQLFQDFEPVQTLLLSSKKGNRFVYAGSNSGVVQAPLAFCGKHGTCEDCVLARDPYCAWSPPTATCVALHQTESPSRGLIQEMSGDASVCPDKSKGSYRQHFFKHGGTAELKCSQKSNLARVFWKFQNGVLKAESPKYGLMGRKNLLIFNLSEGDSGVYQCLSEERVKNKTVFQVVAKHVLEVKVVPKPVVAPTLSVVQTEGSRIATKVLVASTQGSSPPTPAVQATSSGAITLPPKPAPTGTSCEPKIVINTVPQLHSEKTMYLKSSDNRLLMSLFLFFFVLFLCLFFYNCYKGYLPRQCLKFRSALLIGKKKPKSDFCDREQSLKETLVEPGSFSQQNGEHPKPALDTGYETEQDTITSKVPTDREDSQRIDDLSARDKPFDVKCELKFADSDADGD
As to the kind of experiment: FACS, CHO-K1 hSEMA4D cells; Ab 0.534 nM. On the procedure: The medium was aspirated, the cells were washed once with PBS buffer (purchased from Invitrogen), and then treated with cell dissociation fluid (TrypLE™ Express Enzyme, purchased from Life technology), and the cells were collected. After the cells counted, the cells were washed once with PBS phosphate buffer, and diluted to 3×10⁶ cells per milliliter, and added to the 96-well FACS reaction plate as 100 μL per well. 2% (w/w) fetal calf serum was added to PBS phosphate buffer as FACS buffer, with which the cells were washed once by centrifugation at 2000 rpm 4° C. 100 μL of diluted and purified leading antibodies was added to each well and the plate was incubated for 1 hour on ice. […] Cells were washed 2 times by centrifugation with FACS buffer. The cells were suspended with 200 μL of FACS buffer, and FACS (FACS Verse, purchased from BD) was used to detect and analyze the results.

The target of assay [2] is T2, mouse SEMA4D, full length, on CHO-K1 cells (CHO-K1 mSEMA4D) (mouse, UniProt O09126 24-861).
T2 construct: whole, on cells; also called murine SEMA4D recombinant cells
T2 sequence (looked up): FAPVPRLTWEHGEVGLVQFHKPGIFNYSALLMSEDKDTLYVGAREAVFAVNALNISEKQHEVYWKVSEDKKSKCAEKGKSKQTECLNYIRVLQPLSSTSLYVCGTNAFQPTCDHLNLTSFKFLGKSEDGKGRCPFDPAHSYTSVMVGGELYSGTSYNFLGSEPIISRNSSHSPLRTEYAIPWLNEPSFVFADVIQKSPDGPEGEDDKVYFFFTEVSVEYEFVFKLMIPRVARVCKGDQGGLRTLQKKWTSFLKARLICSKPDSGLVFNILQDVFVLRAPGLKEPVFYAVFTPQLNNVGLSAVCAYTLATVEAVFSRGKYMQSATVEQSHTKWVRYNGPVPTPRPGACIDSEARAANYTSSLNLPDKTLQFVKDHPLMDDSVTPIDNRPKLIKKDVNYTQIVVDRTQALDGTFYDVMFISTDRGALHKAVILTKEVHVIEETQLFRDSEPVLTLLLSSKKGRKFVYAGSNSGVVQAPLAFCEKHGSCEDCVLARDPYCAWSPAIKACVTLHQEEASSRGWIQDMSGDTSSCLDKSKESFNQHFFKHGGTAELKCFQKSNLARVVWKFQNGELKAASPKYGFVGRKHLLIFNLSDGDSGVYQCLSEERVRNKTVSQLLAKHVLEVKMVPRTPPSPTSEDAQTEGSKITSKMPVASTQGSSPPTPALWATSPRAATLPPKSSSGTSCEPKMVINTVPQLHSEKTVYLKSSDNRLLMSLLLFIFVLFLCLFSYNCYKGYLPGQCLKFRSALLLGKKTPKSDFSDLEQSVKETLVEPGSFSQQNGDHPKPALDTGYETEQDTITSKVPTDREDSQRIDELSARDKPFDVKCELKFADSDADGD
The assay can be described thus: FACS, CHO-K1 mSEMA4D cells; Ab 0.534 nM. On the procedure:
After the cells were counted, they were diluted with PBS to 2×10⁶ cells per milliliter. After washing, 100 μL of diluted and purified leading antibodies was added to each well and the plate was incubated for 1 hour on ice. […] Cells were washed 2 times by centrifugation with FACS buffer. The cells were suspended with 200 μL of FACS buffer, FACS (FACS Verse, purchased from BD) was used to detect and analyze the results.

B1: 37F11F9 (antibody, V domains shown)
VH: EVQLQQSGPVLVKPGASVKMSCKASGYTFTDYYMNWVKQSHGKSLEWIGLINPYSGGSTFNQKFKAKATLTVDKSSSSAYMDLNSLTSEDSAVYYCARVGDGYYGVTHGMDYWGQGTSVTVSS
VL: DIVMTPSQKFMSTTVGDRVSITCKASQNVGTAVAWYQQKPGQSPTILIYSASNRYTGVPDRFTGSGSGTDFTLTISNMKSEDLADYFCQQYYIYPFTFAAGTKLELK
notes: Mouse monoclonal antibody purified from hybridoma supernatant on protein A
On to B1, for which the results for the MFI in assay [1] and in assay [2] were 1120 and 30.9, respectively.

B2: 37C4F7 (antibody, V domains shown)
VH: EFQLQQSGPEVVKPGASVKISCKASGYSFTDYNMNWMKQSKGKSLEWIGVINPNYGTTTYNQNFKGKATLTVDQSSSTAYMQLNSLTSEDSAVYYCARDMYYVYAYYTMDYWGQGTSVTVSS
VL: DVVMTQTPLSLPVSLGDQASISCRSSQSLVHSNGHTYLHWYLQRPGQSPTLLIYKVSNRFSGVPDRFSGSGSGTDFTLKISRVEAEDLGVYFCSQGTHVPWTFGGGTKLEIK
notes: as for B1
On to B2, for which the MFI in assay [1] is 738; in assay [2] it was 29.2.

B3: 38H2E3 (antibody, V domains shown)
VH: EFQLQQSGPEVVKPGASVKISCKASGYSFTDYNMNWMKQSKGKSLEWIGVISPDYGTTTYNQNFKDKATLTVDQSSSTAYMQLNSLTSEDSAVYYCAKDMYYVYAYYTMDYWGHGTSVTVSS
VL: DVVMTQTPLSLPVSLGDQASISCRSSQSLVHSNGHTYLHWYLQRPGQSPTLLIYKVSNRFSGVPDRVSGSGSGTDFTLKISRVEAEDLGVYFCSQGTHVPRTFGGGTKLEIK
notes: as for B1
For the molecule B3, the results for the MFI in assay [1] and in assay [2] were 763 and 29.5, respectively.

B4: 42B7G2 (antibody, V domains shown)
VH: QVQLQQSGAELARPGASVKLSCKASGYTFTDYGISWVKQRTGQGLEWIGEIYLRNDNSYYNEKFKGKATLTADKSSNTAYMELRSLTSEDSAVYFCARWGDHGNNYEDAMDYWGQGTSVTVSS
VL: DIVLTQSPASLAMSLGKRATISCRASESVSIIGSNLIHWYQQKPGQPPKLLIYHASNLETGVPARFSGSGSRTDFTLTIDPVEEDDVAIYYCLQSRKVPYTFGGGTKLEIK
notes: as for B1
As for B4, the MFI in assay [1] was 2000; in assay [2], 31.7.

B5: 32C8F10 (antibody, V domains shown)
VH: EVQLQQSGAELVRPGASVKLSCTASGFNIKDEYIHWVKQRPEQGLEWIGWIDPANGHTEYASRFQAKATITADTSSNTAYLQLSSLTSEDTAVYYCTTGDYDGFAYWGQGTLVTVST
VL: QIVLTQSPAIMSASPGEKVTISCSARSSVSYMYWYQQKPGSSPKPWIYRTSNLASGVPARFSGSGSGTSYSLTISSMEAEDAATYYCQHYHTYPYTFGGGTKLEIK
notes: as for B1
As to B5, the MFI was 2920 in assay [1] and 29.8 in assay [2].

B6: 31C11G2 (antibody, V domains shown)
VH: EVQLQQSGAELVRPGASVKLSCTASGFNIKDEYIHWVKQRPEQGLEWIGWIDPANGHTEYASRFQAKATITADTSSNTAYLQLSSLTSEDTAVYYCTTGDYDGFVYWGQGTLVTVST
VL: QIVLTQSPAIMSASPGEKVTIFCSARSSVSYMYWYQQKPGSSPKPWIYRTSNLASGVPARFSGSGSGTSYSLTISSMEAEDAATYYCQHYHTYPYTFGGGTKLEIK
notes: as for B1
Consider B6, for which the MFI in assay [1] was 3140; in assay [2], 30.7.

B7: 31G10C5 (antibody, V domains shown)
VH: EVQLQQSGAELVRPGASVKLSCTASGFNIKDDYIHWVKQRPEQGLEWIGWIDPANGHIEYASNFQAKATITADTSSNTAYLQLSSLTSEDTAVYYCTTGDYDGFTYWGQGTLVTVST
VL: QIVLTQSPAIMSASPGEKVTISCSARSSVSYMYWYQQKPGSSPKPWIYRTSNLASGVPARFSGSGSGTSYSLTISSMEAEDAATYYCQHYHTYPYTFGGGTKLEIK
notes: as for B1
As to B7, the MFI in assay [1] worked out at 3070; in assay [2], 30.3.
